Source: PMC11914429, “Reprograming of the ubiquitin ligase Ubr1 by intrinsically disordered Roq1 through cooperating multifunctional motifs” (The EMBO Journal, 2025)
Substitutions are numbered along the chain they refer to. Names and notes keep the numbering of the source. One block for each binder: values may come before it.

Columns and labels:
[1] = target: T1, FLAG-Ubr1, P19812; assay: biolayer interferometry; settings: chain shown with the change; 50 nM Ubr1, association step 5 min; value read at end of association (300 s); 50 mM HEPES, 150 mM NaCl, 10 mM MgCl2, 0.05% Tween-20, 0.02% BSA; parent: est. 4.5; read off a plot
T1 chain: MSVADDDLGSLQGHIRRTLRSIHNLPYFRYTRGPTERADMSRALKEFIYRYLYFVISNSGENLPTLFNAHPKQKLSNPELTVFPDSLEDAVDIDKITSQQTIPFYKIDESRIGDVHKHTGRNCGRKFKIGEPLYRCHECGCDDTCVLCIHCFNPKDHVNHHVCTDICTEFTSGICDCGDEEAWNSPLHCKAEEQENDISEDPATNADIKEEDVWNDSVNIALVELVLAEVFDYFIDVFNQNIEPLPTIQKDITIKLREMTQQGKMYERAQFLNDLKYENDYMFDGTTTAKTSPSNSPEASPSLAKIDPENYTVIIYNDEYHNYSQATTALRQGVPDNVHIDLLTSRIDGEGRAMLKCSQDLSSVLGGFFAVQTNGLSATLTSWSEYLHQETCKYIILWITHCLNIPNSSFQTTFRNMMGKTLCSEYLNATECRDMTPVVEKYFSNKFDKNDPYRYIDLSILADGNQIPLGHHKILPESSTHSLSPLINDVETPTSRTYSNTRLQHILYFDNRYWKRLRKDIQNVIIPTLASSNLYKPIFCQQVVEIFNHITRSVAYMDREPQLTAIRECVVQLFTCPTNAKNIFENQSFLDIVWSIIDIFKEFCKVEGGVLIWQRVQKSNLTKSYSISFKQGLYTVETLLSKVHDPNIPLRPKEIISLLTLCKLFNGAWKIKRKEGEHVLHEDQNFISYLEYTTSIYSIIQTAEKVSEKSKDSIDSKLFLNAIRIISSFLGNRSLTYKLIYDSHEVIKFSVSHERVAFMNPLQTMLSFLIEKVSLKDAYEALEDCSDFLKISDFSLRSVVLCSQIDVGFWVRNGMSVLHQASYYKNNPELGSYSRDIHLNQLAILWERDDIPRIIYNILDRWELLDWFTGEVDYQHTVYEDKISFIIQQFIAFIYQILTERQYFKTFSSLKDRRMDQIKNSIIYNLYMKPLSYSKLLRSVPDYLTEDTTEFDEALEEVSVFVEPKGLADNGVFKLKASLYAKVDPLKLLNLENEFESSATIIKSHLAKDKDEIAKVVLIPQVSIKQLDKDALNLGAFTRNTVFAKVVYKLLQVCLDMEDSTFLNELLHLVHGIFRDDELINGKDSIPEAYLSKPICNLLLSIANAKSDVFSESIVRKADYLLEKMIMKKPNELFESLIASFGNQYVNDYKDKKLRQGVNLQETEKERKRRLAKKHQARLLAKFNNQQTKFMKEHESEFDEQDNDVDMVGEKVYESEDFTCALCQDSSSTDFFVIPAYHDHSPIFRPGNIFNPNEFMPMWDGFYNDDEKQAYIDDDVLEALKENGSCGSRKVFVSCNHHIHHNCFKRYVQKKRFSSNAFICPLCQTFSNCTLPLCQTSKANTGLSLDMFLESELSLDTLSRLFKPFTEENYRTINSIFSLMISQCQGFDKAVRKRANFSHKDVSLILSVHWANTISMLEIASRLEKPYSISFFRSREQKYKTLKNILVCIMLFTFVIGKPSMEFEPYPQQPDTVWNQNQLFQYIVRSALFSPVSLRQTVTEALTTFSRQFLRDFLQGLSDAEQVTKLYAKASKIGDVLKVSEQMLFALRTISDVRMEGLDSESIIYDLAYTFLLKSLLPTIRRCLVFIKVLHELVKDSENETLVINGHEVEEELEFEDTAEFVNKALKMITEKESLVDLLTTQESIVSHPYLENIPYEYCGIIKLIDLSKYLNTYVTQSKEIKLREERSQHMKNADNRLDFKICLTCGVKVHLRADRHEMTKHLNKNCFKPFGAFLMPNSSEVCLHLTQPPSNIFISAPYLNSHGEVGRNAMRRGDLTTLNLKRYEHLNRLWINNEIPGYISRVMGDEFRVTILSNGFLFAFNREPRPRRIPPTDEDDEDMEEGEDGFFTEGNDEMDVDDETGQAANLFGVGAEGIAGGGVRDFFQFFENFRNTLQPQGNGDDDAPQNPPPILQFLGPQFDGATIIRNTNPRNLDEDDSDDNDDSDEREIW

[2] = target: T2, FLAG-Ubr1 (S. cerevisiae, UniProt P19812 1-1950); assay: BLI; biotinylated Rad6 immobilised on streptavidin biosensors, 100 nM soluble Ubr1, without or with 200 nM or 1 µM Roq1(22-104); essentially irreversible, only association analysed; settings: both partners purified
T2 construct: ubiquitin ligase Ubr1 of yeast; single subunit of about 200 kDa, nearly 2000 residues; The purified protein comes from a strain with ubr1::nat-PGPD-FLAG-UBR1, so probably the whole protein; source: protease-deficient yeast expressing FLAG-Ubr1 (SSY2908), purified (anti-FLAG agarose, eluted with FLAG peptide); roq1 knockout yeast expressing FLAG-Ubr1, in lysate; not shown: FLAG, N-terminal, kept

B2: Roq1(22-104) Y55A; Y56A; F57A; V58A (protein)
chain: RSQRDQTRVDSLVEESPMGDFGINNQPTQPGVIAAAAELTNLGIQENTSSNNNNNNNHGDDENGSRYGHGSSLGGDVHSRRCS
- response [1]: 2 nm

B4: Rad6 (enzyme, UniProt P06104 1-172, looked up)
chain: MSTPARRRLMRDFKRMKEDAPPGVSASPLPDNVMVWNAMIIGPADTPYEDGTFRLLLEFDEEYPNKPPHVKFLSEMFHPNVYANGEICLDILQNRWTPTYDVASILTSIQSLFNDPNPASPANVEAATLFKDHKSQYVKRVKETVEKSWEDDMDDMDDDDDDDDDDDDDEAD
modifications: biotin (amino-reactive NHS-PEG4-Biotin)
notes: ubiquitin-conjugating enzyme Rad6, not conjugated to ubiquitin; The plasmid pCA528-Rad6 was a gift (Axel Mogk); It is probably the yeast protein; also called unloaded Rad6; source: E. coli BL21(DE3), purified (His6-SUMO removed with Ulp1, SEC); not shown: His6-SUMO, N-terminal, cleaved
- binding result [2]: binds

The next lines start with the values.

- response [1]: 0 nm
B1: Roq1(22-104) R22A; Y55A; Y56A; F57A; V58A (protein)
chain: B2 chain with R1A

- response [1]: 0.5 nm
B3: Roq1(22-104) R22A (protein)
chain: B2 chain with R1A, A34Y, A35Y, A36F, A37V
